# Results from US11965039B2, “Compstatin analogues and their medical uses” (priority 2018, dated 2024).
# Starred links: 1 amine or outer side, 2 acyl side, 3 side chain; linkers in the order of their positions; H or OH if unused. Positions of bridges follow the written chain, without caps; N, C: chain ends. Non-standard residues stand in square brackets, D forms with d. Groups on a side chain read outwards from the residue. *: point of attachment. C20 diacid = O=C(O)CCCCCCCCCCCCCCCCCCC(=O)*; Trp(1-Me) = Cn1cc(C[C@H](N)C(=O)O)c2ccccc21; C18 diacid = O=C(O)CCCCCCCCCCCCCCCCC(=O)*; C16 diacid = O=C(O)CCCCCCCCCCCCCCC(=O)*; γGlu = O=C(O)[C@H](CCC(=O)[*:2])N[*:1]; AEEA = NCCOCCOCC(=O)O; Sar = CNCC(=O)O
# B1: Compound 97 (peptide)
# peptide: Ac-ICIWQDWGEHRCTEGEK([AEEA-AEEA-γGlu-C18 diacid])-NH2
# modifications: disulfide 2-12
# SMILES: CC[C@H](C)[C@H](NC(C)=O)C(=O)N[C@H]1CSSC[C@@H](C(=O)N[C@H](C(=O)N[C@@H](CCC(=O)O)C(=O)NCC(=O)N[C@@H](CCC(=O)O)C(=O)N[C@@H](CCCCNC(=O)COCCOCCNC(=O)COCCOCCNC(=O)CC[C@H](NC(=O)CCCCCCCCCCCCCCCCC(=O)O)C(=O)O)C(N)=O)[C@@H](C)O)NC(=O)[C@H](CCCNC(=N)N)NC(=O)[C@H](Cc2c[nH]cn2)NC(=O)[C@H](CCC(=O)O)NC(=O)CNC(=O)[C@H](Cc2c[nH]c3ccccc23)NC(=O)[C@H](CC(=O)O)NC(=O)[C@H](CCC(N)=O)NC(=O)[C@H](Cc2c[nH]c3ccccc23)NC(=O)[C@H]([C@@H](C)CC)NC1=O
# B2: Compound 98 (peptide)
# peptide: Ac-ICIWQDWGEHRCTEGK([AEEA-AEEA-γGlu-C20 diacid])-NH2
# modifications: disulfide 2-12
# SMILES: CC[C@H](C)[C@H](NC(C)=O)C(=O)N[C@H]1CSSC[C@@H](C(=O)N[C@H](C(=O)N[C@@H](CCC(=O)O)C(=O)NCC(=O)N[C@@H](CCCCNC(=O)COCCOCCNC(=O)COCCOCCNC(=O)CC[C@H](NC(=O)CCCCCCCCCCCCCCCCCCC(=O)O)C(=O)O)C(N)=O)[C@@H](C)O)NC(=O)[C@H](CCCNC(=N)N)NC(=O)[C@H](Cc2c[nH]cn2)NC(=O)[C@H](CCC(=O)O)NC(=O)CNC(=O)[C@H](Cc2c[nH]c3ccccc23)NC(=O)[C@H](CC(=O)O)NC(=O)[C@H](CCC(N)=O)NC(=O)[C@H](Cc2c[nH]c3ccccc23)NC(=O)[C@H]([C@@H](C)CC)NC1=O
# B3: Compound 100 (peptide)
# peptide: Ac-K([AEEA-AEEA-γGlu-C16 diacid])GSAICIWQDWGEHRCTEGE-NH2
# modifications: disulfide 6-16
# SMILES: CC[C@H](C)[C@H](NC(=O)[C@H](C)NC(=O)[C@H](CO)NC(=O)CNC(=O)[C@H](CCCCNC(=O)COCCOCCNC(=O)COCCOCCNC(=O)CC[C@H](NC(=O)CCCCCCCCCCCCCCC(=O)O)C(=O)O)NC(C)=O)C(=O)N[C@H]1CSSC[C@@H](C(=O)N[C@H](C(=O)N[C@@H](CCC(=O)O)C(=O)NCC(=O)N[C@@H](CCC(=O)O)C(N)=O)[C@@H](C)O)NC(=O)[C@H](CCCNC(=N)N)NC(=O)[C@H](Cc2c[nH]cn2)NC(=O)[C@H](CCC(=O)O)NC(=O)CNC(=O)[C@H](Cc2c[nH]c3ccccc23)NC(=O)[C@H](CC(=O)O)NC(=O)[C@H](CCC(N)=O)NC(=O)[C@H](Cc2c[nH]c3ccccc23)NC(=O)[C@H]([C@@H](C)CC)NC1=O
# B4: Compound 101 (peptide)
# peptide: Ac-EGSAICIWQDWGEHRCTEGK([γGlu-C16 diacid])-NH2
# modifications: disulfide 6-16
# SMILES: CC[C@H](C)[C@H](NC(=O)[C@H](C)NC(=O)[C@H](CO)NC(=O)CNC(=O)[C@H](CCC(=O)O)NC(C)=O)C(=O)N[C@H]1CSSC[C@@H](C(=O)N[C@H](C(=O)N[C@@H](CCC(=O)O)C(=O)NCC(=O)N[C@@H](CCCCNC(=O)CC[C@H](NC(=O)CCCCCCCCCCCCCCC(=O)O)C(=O)O)C(N)=O)[C@@H](C)O)NC(=O)[C@H](CCCNC(=N)N)NC(=O)[C@H](Cc2c[nH]cn2)NC(=O)[C@H](CCC(=O)O)NC(=O)CNC(=O)[C@H](Cc2c[nH]c3ccccc23)NC(=O)[C@H](CC(=O)O)NC(=O)[C@H](CCC(N)=O)NC(=O)[C@H](Cc2c[nH]c3ccccc23)NC(=O)[C@H]([C@@H](C)CC)NC1=O
# B5: Compound 103 (peptide)
# peptide: Ac-EGSAYCI[Trp(1-Me)]QDWGEHK([AEEA-AEEA-γGlu-C16 diacid])C[Sar]E-NH2
# modifications: disulfide 6-16
# SMILES: CC[C@H](C)[C@@H]1NC(=O)[C@@H](NC(=O)[C@H](Cc2ccc(O)cc2)NC(=O)[C@H](C)NC(=O)[C@H](CO)NC(=O)CNC(=O)[C@H](CCC(=O)O)NC(C)=O)CSSC[C@@H](C(=O)N(C)CC(=O)N[C@@H](CCC(=O)O)C(N)=O)NC(=O)[C@H](CCCCNC(=O)COCCOCCNC(=O)COCCOCCNC(=O)CC[C@H](NC(=O)CCCCCCCCCCCCCCC(=O)O)C(=O)O)NC(=O)[C@H](Cc2c[nH]cn2)NC(=O)[C@H](CCC(=O)O)NC(=O)CNC(=O)[C@H](Cc2c[nH]c3ccccc23)NC(=O)[C@H](CC(=O)O)NC(=O)[C@H](CCC(N)=O)NC(=O)[C@H](Cc2cn(C)c3ccccc23)NC1=O
# B6: Compound 5 (peptide)
# peptide: Ac-ICIWQDWGKHRCT-NH2
# modifications: disulfide 2-12
# SMILES: CC[C@H](C)[C@H](NC(C)=O)C(=O)N[C@H]1CSSC[C@@H](C(=O)N[C@H](C(N)=O)[C@@H](C)O)NC(=O)[C@H](CCCNC(=N)N)NC(=O)[C@H](Cc2c[nH]cn2)NC(=O)[C@H](CCCCN)NC(=O)CNC(=O)[C@H](Cc2c[nH]c3ccccc23)NC(=O)[C@H](CC(=O)O)NC(=O)[C@H](CCC(N)=O)NC(=O)[C@H](Cc2c[nH]c3ccccc23)NC(=O)[C@H]([C@@H](C)CC)NC1=O
# B7: Compound 108 (peptide)
# peptide: {C18 diacid}-EGSEYCI[Trp(1-Me)]QDWGEHRC[Sar]E-NH2
# modifications: disulfide 6-16
# SMILES: CC[C@H](C)[C@@H]1NC(=O)[C@@H](NC(=O)[C@H](Cc2ccc(O)cc2)NC(=O)[C@H](CCC(=O)O)NC(=O)[C@H](CO)NC(=O)CNC(=O)[C@H](CCC(=O)O)NC(=O)CCCCCCCCCCCCCCCCC(=O)O)CSSC[C@@H](C(=O)N(C)CC(=O)N[C@@H](CCC(=O)O)C(N)=O)NC(=O)[C@H](CCCNC(=N)N)NC(=O)[C@H](Cc2c[nH]cn2)NC(=O)[C@H](CCC(=O)O)NC(=O)CNC(=O)[C@H](Cc2c[nH]c3ccccc23)NC(=O)[C@H](CC(=O)O)NC(=O)[C@H](CCC(N)=O)NC(=O)[C@H](Cc2cn(C)c3ccccc23)NC1=O
# B8: Compound 109 (peptide)
# peptide: Ac-EGSAYCI[Trp(1-Me)]QDWGEHRC[Sar]EGEK([γGlu-Gly-γGlu-C18 diacid])-NH2
# modifications: disulfide 6-16
# SMILES: CC[C@H](C)[C@@H]1NC(=O)[C@@H](NC(=O)[C@H](Cc2ccc(O)cc2)NC(=O)[C@H](C)NC(=O)[C@H](CO)NC(=O)CNC(=O)[C@H](CCC(=O)O)NC(C)=O)CSSC[C@@H](C(=O)N(C)CC(=O)N[C@@H](CCC(=O)O)C(=O)NCC(=O)N[C@@H](CCC(=O)O)C(=O)N[C@@H](CCCCNC(=O)CC[C@H](NC(=O)CNC(=O)CC[C@H](NC(=O)CCCCCCCCCCCCCCCCC(=O)O)C(=O)O)C(=O)O)C(N)=O)NC(=O)[C@H](CCCNC(=N)N)NC(=O)[C@H](Cc2c[nH]cn2)NC(=O)[C@H](CCC(=O)O)NC(=O)CNC(=O)[C@H](Cc2c[nH]c3ccccc23)NC(=O)[C@H](CC(=O)O)NC(=O)[C@H](CCC(N)=O)NC(=O)[C@H](Cc2cn(C)c3ccccc23)NC1=O
# Biological target: Human C3 (Complement tech cat #A113c) (human, UniProt P01024 23-1663)
# Assay: cell-based or functional assay
# Chain of Human C3 (Complement tech cat #A113c) (P01024 23-1663 limits assumed): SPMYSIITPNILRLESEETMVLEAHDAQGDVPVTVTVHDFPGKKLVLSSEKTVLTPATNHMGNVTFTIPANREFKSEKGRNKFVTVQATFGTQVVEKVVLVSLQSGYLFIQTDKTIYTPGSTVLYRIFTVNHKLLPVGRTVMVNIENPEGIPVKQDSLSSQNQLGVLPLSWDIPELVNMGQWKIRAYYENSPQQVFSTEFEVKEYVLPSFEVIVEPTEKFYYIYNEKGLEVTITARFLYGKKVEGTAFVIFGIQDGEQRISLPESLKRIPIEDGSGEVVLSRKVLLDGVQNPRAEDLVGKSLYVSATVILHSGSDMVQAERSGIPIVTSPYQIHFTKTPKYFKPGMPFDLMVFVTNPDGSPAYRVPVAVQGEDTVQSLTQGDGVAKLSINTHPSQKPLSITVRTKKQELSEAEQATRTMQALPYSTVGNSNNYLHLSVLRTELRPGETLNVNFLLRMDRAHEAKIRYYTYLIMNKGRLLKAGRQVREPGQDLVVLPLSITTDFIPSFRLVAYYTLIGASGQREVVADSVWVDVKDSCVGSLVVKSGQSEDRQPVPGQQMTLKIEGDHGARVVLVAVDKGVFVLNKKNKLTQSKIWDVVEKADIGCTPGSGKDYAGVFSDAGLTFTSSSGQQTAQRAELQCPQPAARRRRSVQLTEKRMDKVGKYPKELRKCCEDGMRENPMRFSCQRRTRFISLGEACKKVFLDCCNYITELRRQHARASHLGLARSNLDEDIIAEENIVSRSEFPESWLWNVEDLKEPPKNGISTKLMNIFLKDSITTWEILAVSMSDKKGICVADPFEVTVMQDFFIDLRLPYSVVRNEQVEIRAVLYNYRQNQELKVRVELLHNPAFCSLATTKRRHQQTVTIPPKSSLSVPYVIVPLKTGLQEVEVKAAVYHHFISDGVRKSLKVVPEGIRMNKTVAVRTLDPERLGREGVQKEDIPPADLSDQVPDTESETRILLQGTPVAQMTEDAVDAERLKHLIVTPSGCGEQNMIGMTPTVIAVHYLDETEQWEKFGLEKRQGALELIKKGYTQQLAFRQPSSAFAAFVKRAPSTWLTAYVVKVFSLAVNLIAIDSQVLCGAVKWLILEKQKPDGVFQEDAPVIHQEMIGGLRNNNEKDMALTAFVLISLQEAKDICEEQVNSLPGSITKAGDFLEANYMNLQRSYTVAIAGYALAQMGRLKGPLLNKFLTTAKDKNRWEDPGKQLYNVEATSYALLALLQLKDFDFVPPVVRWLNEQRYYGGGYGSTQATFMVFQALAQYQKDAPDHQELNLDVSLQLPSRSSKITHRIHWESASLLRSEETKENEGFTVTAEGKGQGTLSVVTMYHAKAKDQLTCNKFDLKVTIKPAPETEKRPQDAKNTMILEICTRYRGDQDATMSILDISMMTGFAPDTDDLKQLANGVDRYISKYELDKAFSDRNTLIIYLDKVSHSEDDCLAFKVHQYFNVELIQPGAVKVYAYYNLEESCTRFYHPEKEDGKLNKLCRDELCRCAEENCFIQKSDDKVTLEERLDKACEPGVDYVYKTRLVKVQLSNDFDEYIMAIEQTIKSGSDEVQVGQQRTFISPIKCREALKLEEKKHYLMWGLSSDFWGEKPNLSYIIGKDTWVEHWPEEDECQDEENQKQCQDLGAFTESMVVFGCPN
row,Binder,inhibition of hemolysis IC50
1,B1,< 250 nM
2,B2,< 500 nM
3,{C16 diacid}-ESSAICIWQDWGEHRCTEGE-NH2 (disulfide 6-16) [Compound 99],< 250 nM
4,B3,< 500 nM
5,B4,< 500 nM
6,B5,< 100 nM
7,B6,< 250 nM
8,Ac-SAYCI[Trp(1-Me)]QDWGEHRC[Sar]EK([γGlu-Gly-Lys-γGlu-C18 diacid])-NH2 (disulfide 4-14) [Compound 105],< 100 nM
9,B7,< 500 nM
10,B8,< 250 nM
